Laboratory results: patent publication US20170319674A1

Target: NY-ESO-1 αβTCR with murinized domain 3 in β-chain, paired with the human TCRα-chain (human)
Assay: cell-based or functional assay

- percentage of lysis (standard chromium release assay): 4 fold
Substance: H57-597 (antibody)
